Biological target: GST-(TEV)-ZGRF1-(His)6 (human, UniProt Q86YA3 1-2104)
Assay: pull-down

Chain of GST-(TEV)-ZGRF1-(His)6 (Q86YA3 whole entry): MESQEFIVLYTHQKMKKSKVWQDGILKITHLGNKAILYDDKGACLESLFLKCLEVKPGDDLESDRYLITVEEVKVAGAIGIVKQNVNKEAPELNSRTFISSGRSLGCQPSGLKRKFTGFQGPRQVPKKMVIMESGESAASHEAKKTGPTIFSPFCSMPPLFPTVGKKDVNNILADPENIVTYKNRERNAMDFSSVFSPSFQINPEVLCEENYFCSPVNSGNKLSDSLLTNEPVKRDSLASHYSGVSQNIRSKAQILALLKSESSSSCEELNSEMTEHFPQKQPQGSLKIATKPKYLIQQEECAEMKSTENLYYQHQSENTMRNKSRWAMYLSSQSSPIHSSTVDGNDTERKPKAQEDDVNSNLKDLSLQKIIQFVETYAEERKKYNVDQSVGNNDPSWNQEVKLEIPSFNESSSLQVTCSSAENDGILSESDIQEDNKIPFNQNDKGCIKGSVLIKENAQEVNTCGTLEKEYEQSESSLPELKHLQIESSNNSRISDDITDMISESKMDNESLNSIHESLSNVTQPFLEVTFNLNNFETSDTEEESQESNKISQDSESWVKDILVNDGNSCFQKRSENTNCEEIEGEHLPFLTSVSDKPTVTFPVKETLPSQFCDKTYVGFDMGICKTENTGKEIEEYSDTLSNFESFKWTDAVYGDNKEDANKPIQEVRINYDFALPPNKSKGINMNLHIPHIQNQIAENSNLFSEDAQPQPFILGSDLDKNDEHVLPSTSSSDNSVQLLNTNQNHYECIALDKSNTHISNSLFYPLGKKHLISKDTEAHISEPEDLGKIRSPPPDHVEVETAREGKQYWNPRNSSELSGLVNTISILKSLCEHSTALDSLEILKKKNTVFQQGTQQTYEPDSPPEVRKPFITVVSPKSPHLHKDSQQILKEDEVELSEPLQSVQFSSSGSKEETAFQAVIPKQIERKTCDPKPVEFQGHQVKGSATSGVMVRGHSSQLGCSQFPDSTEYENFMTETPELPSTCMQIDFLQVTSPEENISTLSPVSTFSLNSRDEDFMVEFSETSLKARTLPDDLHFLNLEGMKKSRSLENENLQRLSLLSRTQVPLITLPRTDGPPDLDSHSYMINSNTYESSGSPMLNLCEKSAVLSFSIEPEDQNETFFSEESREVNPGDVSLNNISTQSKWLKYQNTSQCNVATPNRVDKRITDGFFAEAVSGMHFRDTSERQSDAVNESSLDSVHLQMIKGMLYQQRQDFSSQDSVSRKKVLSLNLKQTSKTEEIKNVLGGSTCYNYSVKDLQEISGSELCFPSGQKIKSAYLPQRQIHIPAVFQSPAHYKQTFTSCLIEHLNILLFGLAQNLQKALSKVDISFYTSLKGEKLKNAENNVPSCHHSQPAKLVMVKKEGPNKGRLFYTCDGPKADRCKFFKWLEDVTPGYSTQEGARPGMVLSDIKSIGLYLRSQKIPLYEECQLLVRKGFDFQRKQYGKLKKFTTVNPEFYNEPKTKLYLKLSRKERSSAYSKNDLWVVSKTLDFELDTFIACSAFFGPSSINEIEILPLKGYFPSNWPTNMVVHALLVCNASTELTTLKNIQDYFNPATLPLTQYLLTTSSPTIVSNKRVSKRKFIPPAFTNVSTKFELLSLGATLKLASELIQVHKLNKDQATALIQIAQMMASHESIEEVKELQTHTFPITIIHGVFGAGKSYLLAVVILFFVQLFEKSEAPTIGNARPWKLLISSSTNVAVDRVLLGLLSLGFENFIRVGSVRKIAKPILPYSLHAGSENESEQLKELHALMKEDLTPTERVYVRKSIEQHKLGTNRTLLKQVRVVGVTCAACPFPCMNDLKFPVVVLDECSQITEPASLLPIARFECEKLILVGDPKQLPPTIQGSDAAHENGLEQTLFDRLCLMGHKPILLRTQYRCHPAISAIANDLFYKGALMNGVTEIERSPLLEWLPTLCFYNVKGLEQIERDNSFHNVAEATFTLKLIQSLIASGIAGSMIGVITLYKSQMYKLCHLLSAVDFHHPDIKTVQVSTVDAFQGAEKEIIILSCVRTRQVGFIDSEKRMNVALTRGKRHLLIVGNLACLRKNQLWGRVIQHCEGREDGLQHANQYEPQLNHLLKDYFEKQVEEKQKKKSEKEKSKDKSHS

binding result: binds
B1: human RAD51 (natural protein, UniProt Q06609 1-339, looked up)
chain: MAMQMQLEANADTSVEEESFGPQPISRLEQCGINANDVKKLEEAGFHTVEAVAYAPKKELINIKGISEAKADKILAEAAKLVPMGFTTATEFHQRRSEIIQITTGSKELDKLLQGGIETGSITEMFGEFRTGKTQICHTLAVTCQLPIDRGGGEGKAMYIDTEGTFRPERLLAVAERYGLSGSDVLDNVAYARAFNTDHQTQLLYQASAMMVESRYALLIVDSATALYRTDYSGRGELSARQMHLARFLRMLLRLADEFGVAVVITNQVVAQVDGAAMFAADPKKPIGGNIIAHASTTRLYLRKGRGETRICKIYDSPCLPEAEAMFAINADGVGDAKD
